According to the supplement of paper PMC7877785:
± gives the uncertainty stated by the source.

Experiment: self-splicing fitness, log relative to wild type (ln ratio); higher = more splicing; Tetrahymena group I intron in knt gene, E. coli kanamycin selection, DiMSum; sequences stand for … in CUCUCU…GGAGGGAAAAGUUAUCAGGCAUGCACCUGGUAGCUAGUCUUUAAACCAAUAGAUUGCAUCGGUUUAAAAGGCAAGACCGUCAAAUUGCGGGAAAGGGGUCAACAGCCGUUCAGUACCAAGUCUCAGGGGAAACUUUGAGAUGGCCUUGCAAAGGGUAUGGUAAUAAGCUGACGGACAUGGUCCUAACCACGCAGCCAAGUCCUAAGUCAACAGAUCUUCUGUUGAUAUGGAUGCAGUUCACAGACUAAAUGUCGGUCGGGGAAGAUGUAUUCUUCUCAUAAGAUAUAGUCGGACCUCUCCUUAAUGGGAGCUAGCGGAUGAAGUGAUGCAACACUGGAGCCGCUGGGAACUAAUUUGUAUGCGAAAGUAUAUUGAUUAGUUUUGGAGUACUCGUGGUCG
Summary of the method: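 Colonies from six replicate transformations of E. coli BL21(DE3) were pooled and amplicon-sequenced on an Illumina HiSeq 2500. The library placed an intron with all eight P1ex-region nucleotides randomised inside the knt kanamycin-resistance gene on pET-22b(+), and cells grew overnight at 37°C or 30°C on LB agar with or without 25 μg/mL kanamycin (plus 100 μg/mL carbenicillin, 50 μM IPTG, 0.2% rhamnose). Fitness is the DiMSum error-weighted combination of wild-type-normalised replicate fold changes, kanamycin versus none.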

Row | Sequence | self-splicing fitness (ln) (30 °C) | self-splicing fitness (ln) (37 °C)
1 | CGAUAGCAAUAUUACGAUCU | -0.235 ± 0.11 | 0.177 ± 0.12
2 | UGUGAGCAAUAUUACGCAGA | -2.79 ± 0.29 | -1.83 ± 0.48
3 | UGUUAGCAAUAUUACGCUGC | -1.63 ± 0.18 | -2.44 ± 0.32
4 | CCACAGCAAUAUUACGUUAG | -1.56 ± 0.062 | -0.188 ± 0.071
5 | UGUAAGCAAUAUUACGGAGC | -2.11 ± 0.33 | –
6 | CGGGAGCAAUAUUACGUUAU | -2.65 ± 0.26 | -3.21 ± 0.47
7 | ACUAAGCAAUAUUACGGCCC | -0.668 ± 0.18 | -0.484 ± 0.27
8 | CGACAGCAAUAUUACGGCAU | -3.08 ± 0.21 | -2.16 ± 0.25
9 | GCUAAGCAAUAUUACGAUAG | -1.25 ± 0.13 | -1.63 ± 0.17
10 | CCAAAGCAAUAUUACGAGCU | -3.38 ± 0.22 | -2.14 ± 0.22
11 | UAUAAGCAAUAUUACGGUCA | -0.385 ± 0.12 | -0.125 ± 0.13
12 | UUGCAGCAAUAUUACGUGUC | -3.3 ± 0.17 | -3.15 ± 0.24
13 | ACGAAGCAAUAUUACGCUCC | -2.06 ± 0.42 | -0.416 ± 0.41
14 | CACAAGCAAUAUUACGCGCU | -4.44 ± 0.27 | -2.33 ± 0.18
15 | AUGAAGCAAUAUUACGCGCG | -0.094 ± 0.087 | -0.808 ± 0.098
16 | GCGCAGCAAUAUUACGUCGG | -1.4 ± 0.097 | -0.816 ± 0.13
17 | ACUGAGCAAUAUUACGGCGG | -1.46 ± 0.1 | -1.54 ± 0.13
18 | GGAAAGCAAUAUUACGCUGG | -2.2 ± 0.14 | -2.81 ± 0.26
19 | UUUCAGCAAUAUUACGAGUG | -0.489 ± 0.094 | -0.205 ± 0.11
20 | CACCAGCAAUAUUACGCUCU | -3.85 ± 0.2 | -1.48 ± 0.15
21 | GUCAAGCAAUAUUACGGUCC | -2.23 ± 0.27 | -1.09 ± 0.25
22 | CCUAAGCAAUAUUACGCAUU | -3.56 ± 0.29 | -2.2 ± 0.27
23 | CAUAAGCAAUAUUACGGAUA | -3.62 ± 0.19 | -2.87 ± 0.18
24 | CGGCAGCAAUAUUACGCCUA | -0.162 ± 0.17 | 0.427 ± 0.13

Row | Sequence | self-splicing fitness (ln) (30 °C) | self-splicing fitness (ln) (37 °C)
25 | GUAUAGCAAUAUUACGCUAA | -2.52 ± 0.2 | -1.57 ± 0.16
26 | GACGAGCAAUAUUACGUUGA | -2.36 ± 0.22 | -1.5 ± 0.17
27 | AUGUAGCAAUAUUACGGCAA | 0.118 ± 0.11 | -0.419 ± 0.12
28 | AGAUAGCAAUAUUACGUCCC | -1.36 ± 0.2 | 0.133 ± 0.32
29 | AAGUAGCAAUAUUACGUUAA | -2.47 ± 0.23 | -2.33 ± 0.18
30 | UGUCAGCAAUAUUACGUGUG | -0.636 ± 0.048 | 0.0859 ± 0.065
31 | AACGAGCAAUAUUACGUAAC | -2.83 ± 0.2 | -1.83 ± 0.44
32 | UGCUAGCAAUAUUACGCCGA | -2.48 ± 0.25 | -1 ± 0.19
33 | CCCGAGCAAUAUUACGCCGC | -3.53 ± 0.43 | -1.59 ± 0.47
34 | GAGAAGCAAUAUUACGCUGA | -1.49 ± 0.17 | -1.29 ± 0.15
35 | GGCUAGCAAUAUUACGUGUU | -1.02 ± 0.058 | 0.41 ± 0.063
36 | ACGAAGCAAUAUUACGAGUG | -2.77 ± 0.1 | -2.29 ± 0.11
37 | GCCAAGCAAUAUUACGUAAA | -1.63 ± 0.1 | -0.72 ± 0.13
38 | UCACAGCAAUAUUACGCAAC | – | -3.26 ± 0.39
39 | CACCAGCAAUAUUACGCCUG | -1.11 ± 0.076 | -0.247 ± 0.097
40 | AUAAAGCAAUAUUACGUGGU | -2.45 ± 0.094 | -1.64 ± 0.1
41 | AGGUAGCAAUAUUACGGAUC | -1.721 ± 0.017 | -0.787 ± 0.034
42 | CUAUAGCAAUAUUACGGGUC | -3.19 ± 0.29 | -2.05 ± 0.28
43 | GGGUAGCAAUAUUACGGUGG | -2.55 ± 0.27 | -1.61 ± 0.33
44 | GGACAGCAAUAUUACGGAAA | -2.04 ± 0.15 | -1.23 ± 0.14
45 | CAGGAGCAAUAUUACGCCUA | -0.617 ± 0.19 | -1.01 ± 0.21
46 | GUUAAGCAAUAUUACGGGAU | -2.31 ± 0.14 | -0.169 ± 0.14
47 | CAAAAGCAAUAUUACGGUGA | -1.57 ± 0.096 | -1.62 ± 0.1
48 | GGUCAGCAAUAUUACGUUGU | -1.51 ± 0.057 | -0.47 ± 0.068
